# Data taken from publication PMC3298750 (Nature immunology, 2011).
# Non-standard residues stand in square brackets, D forms with d. No end group written: not given here. pS = N[C@@H](COP(=O)(O)O)C(=O)O
# Biological target: 15N-WW domain of Pin1 (tag removed) (UniProt Q13526 5-39, 15N-labelled)
# Assay: NMR titration
# 15N-WW domain of Pin1 (tag removed), sequence (Q13526 5-39): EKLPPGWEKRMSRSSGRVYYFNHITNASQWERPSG
row,Binder,Kd
1,EAEAW[pS]PRKLP [IRAK1 phosphopeptide 126-136 (pSer131-P132)],220 ± 15 µM
2,STFL[pS]PAFPGS [IRAK1 phosphopeptide 140-150 (pSer144-P145)],120 ± 12 µM
3,ELGLVPSPASLWPPPP[pS]PAPSSTK [IRAK1 phosphopeptide 157-180 (pSer173-P174)],260 ± 75 µM
